Measured values published in US5942491A (priority 1996, dated 1999).
“Also recorded” adds a separate entry of the source. Where two headings read alike, the source gives them in different places. Where no end group is shown, it is not given here.

Key:
adjuvant arthritis [1] = assay type: in vivo, Lewis rats
adjuvant arthritis [2] = tested on: adjuvant arthritis; set-up: species or system Lewis rats; settings: rat, in vivo
adjuvant arthritis [3] = test: Adjuvant-induced model of arthritis, summary statements on prevention and treatment; assay type: in vivo, Lewis rats; settings: summary statement
adjuvant arthritis [4] = settings: for Development of experimental allergic encephalomyelitis (EAE): arthritogenic doses of CFA (Mb) combined with MBP

Row | Molecule | Effect on the course of pre-existing arthritis (adjuvant arthritis [1]; rat, in vivo) | Remission of arthritis (adjuvant arthritis [1]; rat, in vivo) | Anti-arthritic activity after storage (adjuvant arthritis [1]; solvated and kept in refrigerator at 4 degrees centigrade for three months) | Protective effect against induction of adjuvant arthritis (adjuvant arthritis [2]) | Prevention and suppression/treatment of arthritis (summary in words) (adjuvant arthritis [3]; listed as MBP) | Prevention and suppression/treatment of arthritis (summary in words) (adjuvant arthritis [3]; listed as pMBP) | Development of experimental allergic encephalomyelitis (EAE) (adjuvant arthritis [4]) | Development of experimental allergic encephalomyelitis (EAE) (adjuvant arthritis [4]; listed as MBP) | A. Number of animals inoculated/number of animals with arthritis (adjuvant arthritis [4]; rat, in vivo) | C. Average day of onset of arthritis (adjuvant arthritis [4]; rat, in vivo) | D. Average duration of symptoms (adjuvant arthritis [4]; rat, in vivo) | Effect of co-inoculation with FCA on arthritis (in words) (adjuvant arthritis [4]; rat, in vivo) | Effect of co-inoculation with FCA on arthritis (in words) (adjuvant arthritis [4]; rat, in vivo, listed as MBP)
1 | FSWGAEGQR [EAE peptide, EAE peptide derived from MBP, reference compound] | somewhat effective |  |  |  |  |  |  |  |  |  |  |  | 
2 | BP: Porcine myelin basic protein (Lilly) (protein, UniProt P81558 1-171, looked up) Myelin basic protein: ASQKRPSQRHGSKYLASASTMDHARHGFLPRHRDTGIDSLGRFFGADRGAPKRGSGKDGHHAARTTHYGSLPQKAQHGRPQDENPVVHFFKNIVTPRTPPPSQGKGRGLSLSRFSWGAEGQKPGFGYGGRAPDYKPAHKGLKGAQDAQGTLSKIFKLGGRDSRSGSPMARR | marked effect on the course of the arthritis, reducing the clinical severity of the disease | complete remission in all three animals tested | no activity | minimal protective effects that were of limited clinical value | prevent and suppress arthritis | appear to protect against and to effectively treat pre-existing arthritis clinical symptoms | developed experimental allergic encephalomyelitis (EAE) | All six animals developed EAE | 0/6 | 0 days | 0 days | did not develop any symptoms of arthritis over a period of 2 months | none had any clinical signs or arthritis
3 | OA: chicken ovalbumin (Sigma) (protein, UniProt P01012 2-386, looked up) Ovalbumin: GSIGAASMEFCFDVFKELKVHHANENIFYCPIAIMSALAMVYLGAKDSTRTQINKVVRFDKLPGFGDSIEAQCGTSVNVHSSLRDILNQITKPNDVYSFSLASRLYAEERYPILPEYLQCVKELYRGGLEPINFQTAADQARELINSWVESQTNGIIRNVLQPSSVDSQTAMVLVNAIVFKGLWEKAFKDEDTQAMPFRVTEQESKPVQMMYQIGLFRVASMASEKMKILELPFASGTMSMLVLLPDEVSGLEQLESIINFEKLTEWTSSNVMEERKIKVYLPRMKMEEKYNLTSVLMAMGITDVFSSSANLSGISSAESLKISQAVHAAHAEINEAGREVVGSAEAGVDAASVSEEFRADHPFLFCIKHIATNAVLFFGRCVSP |  |  |  | very significant protective effects against induction of adjuvant arthritis; also recorded: protective |  |  |  |  |  |  |  |  | 
